{"source": "patent US8030017B2", "about": "“Thermostable luciferases and methods of production” (Promega Corporation, priority 1997, dated 2011)", "molecules": {"B1": {"name": "Luc49-7C6: mutant luciferase, SEQ ID NO:14 (protein)", "chain": "MADKNILYGPEPFYPLADGTAGEQMFYALSRYADISGCIALTNAHTKENVLYEEFLKLSCRLAESFKKYGLKQNDTIAVCSENGLQFFLPIIASLYLGIIAAPVSDKYIERELIHSLGIVKPRIIFCSKNTFQKVLNVKSKLKYVETIIILDLNEDLGGYQCLNNFISQNSDINLDVKKFKPYSFNRDDQVALVMFSSGTTGVSKGVMLTHKNIVARFSLAKDPTFGNAINPTTAILTVIPFHHGFGMMTTLGYFTCGFRVVLMHTFEEKLFLQSLQDYKVESTLLVPTLMAFLAKSALVEKYDLSHLKEIASGGAPLSKEIGEMVKKRFKLNFVRQGYGLTETTSAVLITPNNDVRPGSTGKIVPFHAVKVVDPTTGKILGPNEPGELYFKGDMIMKGYYNNEEATKAIINKDGWLRSGDIAYYDNDGHFYIVDRLKSLIKYKGYQVAPAEIEGILLQHPYIVDAGVTGIPDEAAGELPAAGVVVQTGKYLNEQIVQNFVSSQVSTAKWLRGGVKFLDEIPKGSTGKIDRKVLRQMFEKHTNG", "modifications": "Mutant luciferase"}, "B2": {"name": "Luc78-0B10: mutant luciferase, SEQ ID NO:19 (protein)", "chain": "MADKNILYGPEPFYPLADGTAGEQMFDALSRYADISGCIALTNAHTKENVLYEEFLKLSCRLAESFKKYGLKQNDTIAVCSENGLQFFLPVIASLYLGIIAAPVSDKYIERELIHSLGIVKPRIIFCSKNTFQKVLNVKSKLKSVETIIILDLNEDLGGYQCLNNFISQNSDSNLDVKKFKPYSFNRDDQVALVMFSSGTTGVPKGVMLTHKNIVARFSLAKDPTFGNAINPTTAILTVIPFHHGFGMMTTLGYFTCGFRVVLMHTFEEKLFLQSLQDYKVESTLLVPTLMAFLAKSALVEKYDLSHLKEIASGGAPLSKEIGEMVKKRFKLNFVRQGYGLTETTSAVLITPKGDARPGSTGKIVPFHAVKVVDPTTGKILGPNEPGELYFKGAMIMKGYYNNEEATKAIIDNDGWLRSGDIAYYDNDGHFYIVDRLKSLIKYKGYQVAPAEIEGILLQHPYIVDAGVTGIPDEAAGELPAAGVVVQTGKYLNEQIVQDFVSSQVSTAKWLRGGVKFLDEIPKGSTGKIDRKVLRQMFEKHTNG", "modifications": "Mutant luciferase"}}, "key": {"[1]": {"assay": "Michaelis-Menten constant for ATP of purified mutants", "format": "biochemical", "settings": "purified enzyme", "text": "(§1) Substrate binding was screened by measuring an apparent composite Km (see Example 2) for luciferin and ATP. […] The Km for luciferin rose while the Km for ATP declined (Table 3). The reason for this change is unknown, although it can be speculated that more efficient release of oxyluciferin or luciferin inhibitors could lead to more rapid enzyme turnover.\n(§2) Protein purification: Four mutants that are described herein (Luc[T249M], Luc49-7C6, Luc78-0B10, and Luc90-1B5) were purified using a previously published procedure (Hastings et al., 1996)."}, "[2]": {"assay": "Michaelis-Menten constant for luciferin of purified mutants", "format": "biochemical", "settings": "purified enzyme", "text": "as §1, §2"}, "[3]": {"assay": "Robotic quantitative screen of E. coli lysates: luminescence activity (Li), expression/specific activity", "format": "biochemical", "settings": "relative value", "description": "A plate containing cells is retrieved from the carousel and placed on the shaker for 3-5 minutes to fully mix the cells. The cells tend to settle from solution upon standing.\nTo measure Optical Density (O.D.), the plate is moved from the shaker to the locator near the luminometer; the lid is removed and the plate placed into the luminometer. The O.D. is measured using a 620 nm filter.\nTo prepare a cell lysate, the plate of cells is first retrieved from the refrigerator and mixed on the shaker to resuspend the cells. A new plate from the carousel without a lid is placed in the reagent dispenser and 20 μl of Buffer A is added to each well. This is placed in the pipetting station.\nThe plate is then moved to the reagent dispenser to add 175 μl of Buffer B, and then mixed on the shaker for about 15 minutes or more. The combination of the freeze/thaw and Buffer B will cause the cells to lyse.\n(§3) One daughter plate is placed in the luminometer and the 1X assay method is used. After the assay, the plate is placed in the ambient incubator, and the second daughter plate is placed in the luminometer. For the second plate, the 0.02X assay method is used. This plate is discarded, and the first plate is returned from the incubator to the luminometer. The repeat assay method is used (i.e., no reagent is injected). Afterwards, the plate is again returned to the ambient incubator.\n1X Assay reagent: 5 μM Luciferin; 175 μM ATP; 20 mM Tricine, pH 8.0; 0.1 mM EDTA\n(§4) The following criteria were used for screening purposes. The temperature chosen for the enzyme stability parameter was such that the parent enzyme would decay 100 to 1000 fold over 10 hours (see Table 1). Criteria 1 is achieved manually; data for criteria 2-6 is generated by robotic analysis. For all criteria, the maximum value as described is selected. • 1. In vivo screen. The brightest clones are selected at a given temperature. • 2. Expression/specific activity. The value for normalized luminescence is calculated as the ratio of luminescence to optical density. The value is reported as the ratio with the reference value. • 3. Enzyme stability. Measurements of normalized luminescence of the incubated samples (3 taken over about 15 hours) are fitted to In(L)=In(L0)−(t/τ), where L is normalized luminescence and t is time. τ is a measure of the enzyme stability. The value is reported as the ratio with the reference value, and the correlation coefficients are calculated. • 4. Substrate binding. Measurements of normalized luminescence with 1X and 0.02X are taken at the initial reading set, and 1X and 0.06X are taken at the 5 hour set. The ratio of the 0.02X:1X and 0.06X:1X gives the relative luminescence at 0.02X and 0.06X concentrations. These values, along with the relative luminescence at 1X (i.e., 1), are fitted to a Lineweaver-Burk plot to yield the Km:app,total for the substrates ATP, luciferin, and CoA. The values are reported as the inverse ratio with the reference value, and the correlation coefficients are calculated. • 5. Signal stability. The luminescence of the initial IX luminescent reactions are re-measured 3 additional times over about 15 hours. These values are fitted to In(L)=In(L0)−(t/τ) and the integral over t (15 hours) is calculated. Signal stability is then calculated as S=(1−int(L)/L0t)^2. The values are reported as the inverse ratio with the reference value, and the correlation coefficients are calculated. • 6. Composite fitness. The values of criteria 2 through 5 are combined into a single composite value of fitness (or commercial utility). This value is based on a judgment of the relative importance of the other criteria. This judgment is given below:\nNormalize luminescence data: For each measurement of luminescence in the eight daughter plates, the normalized luminescence is calculated by dividing the relative light units by the optical density of the original plate. […]"}, "[4]": {"assay": "Thermostability (half-life, retained activity) of luciferases incubated in aqueous solution at different temperatures", "format": "physicochemical", "settings": "for thermostability compared with parent enzyme: 4° C., times of less than 15 days (FIG. 49); for half-life: 22° C. (FIGS. 9, 10); for Thermostability Of Luciferase Activity (Half-Life In Hours): purified enzyme", "text": "As defined herein, a “thermostable” enzyme, e.g., a luciferase, or an enzyme which has “thermostability”, is an enzyme which under certain conditions, e.g., at certain temperature, in aqueous solution and/or for certain periods of time, has an increased retention of activity relative to a reference enzyme. For example, for a thermostable luciferase, a reference luciferase may be native wild-type luciferase or recombinant wild-type luciferase. Preferably, for beetle luciferases, the activity is luminescence under conditions of saturation with luciferin and ATP. One measure of thermostability of an enzyme is the half-life of the enzyme in an aqueous solution (the time over which 50% of the activity is lost) at a stated temperature.\nas §2\n[…] Enzyme stability was determined from diluted proteins incubated at different temperatures, and aliquots were removed at different time points. A linear regression of the natural log of the luminescence and time was calculated. Half-life was calculated as the 1n(0.5)/slope of the regression."}, "[5]": {"assay": "Robotic quantitative screen of E. coli lysates: signal stability (S), sustained enzymatic turnover", "format": "biochemical", "settings": "inverse ratio with reference", "description": "as §3\nThe plate in the ambient incubator is returned to the luminometer and the repeat assay method is again used. The plate is returned afterwards to the ambient incubator.\nThe plate in the ambient incubator is returned to the luminometer and the repeat assay method is again used. The plate is discarded afterwards.\nas §4\nCalculate signal stability (S): For each sample, use linear regression to fit In(L)=In(L0)[…] using the four luminescence measurements of the initial microplate with 1X substrate concentrations (Plates 1, 3, 4, and 7). Also calculate the regression coefficient. From the calculated values of T and L0, calculate the integral of luminescence by int(L)=τL0(1−exp(−tf/τ)), where tf is the average time of the last measurement (e.g., 15 hours). The signal stability is calculated as S=(1−int(L)/Litf)^2, where Li is the initial measurement of normalized luminescence with 1× substrate concentration (Plate 1).\n[Note: To correct for evaporation, an equation S=(1+K−int(L)/Litf)^2, may be used where 1/K=2(relative change of liquid volume at tf).]\nCalculate the reference-normalized values: For the criteria parameter of each sample, a reference-normalized value is determined by calculating the ratio or inverse ratio with the respective reference value. […]"}, "[6]": {"assay": "Robotic quantitative screen of E. coli lysates: enzyme stability (tau) at elevated temperature", "format": "physicochemical", "settings": "relative value", "description": "Two white assay plates (Labsystems #9502887) are obtained from the plate feeder and placed in the pipetter. The incubation plate from the shaker is placed in the pipetter, and the lid removed and placed on the nearby locator. Two daughter plates are made using the pipetting procedure (see “Create Pair of Daughter Plates from Incubation Plate”). Afterwards, the lid is replaced on the parent plate, and the plate is placed in a high temperature incubator. [ranging from 31° C. to about 65° C. depending on the clone.]\nTo begin the second set of measurements, the plate from the high temperature incubator is placed in the shaker to mix.\nIn the final set of measurements, the plate from the high temperature incubator is again placed in the shaker to mix.\nas §4\nCalculate enzyme stability (τ): For each sample, use linear regression to fit In(L1x)=In(L0)−(t/τ) using the three luminescence measurements with 1X substrate concentrations (Plates 1, 5, 8). Also calculate the regression coefficient.\nCalculate the reference-normalized values: For the criteria parameter of each sample, a reference-normalized value is determined by calculating the ratio or inverse ratio with the respective reference value. The reference-normalized values are Li/Lir, τ/τr, Kmr/Km:app,total, and Sr/S, where reference values are calculated from the equations of the appropriate reference surface.\n“Enzyme stability” was determined by the rate of activity loss from cell lysates over 10 hours. In successive rounds of evolution the incubation temperature of the lysates was increased.\nRobotic Automation: Robotic automation was used in the quantitative screens to accurately perform the large number of required quantitative assays on the cultured cells. […]"}, "[7]": {"settings": "Control is Luc46-2H3 at 54° C. (=1)"}, "[8]": {"settings": "Room Temperature (about 25° C.)"}, "[9]": {"settings": "Control is Luc71-5D4 at 60° C. (=1)"}}}
{"molecule": "B1", "values": [{"measurement": "Km", "setting": "[1]", "result": 14, "unit": "µM"}, {"measurement": "Km", "setting": "[2]", "result": 0.99, "unit": "µM"}, {"measurement": "Luminescence (Li)", "setting": "[3]; [7]", "result": 1.12}, {"measurement": "thermostability compared with parent enzyme", "setting": "[4]", "result": "not distinguishable from the parent enzyme"}, {"measurement": "half-life", "setting": "[4]", "result": 64, "unit": "days"}, {"measurement": "Thermostability Of Luciferase Activity (Half-Life In Hours)", "setting": "[4]; 37° C.", "result": 68, "unit": "h"}, {"measurement": "half-life calculated from regression of log luminescence", "setting": "[4]; 50° C. (FIG. 7)", "result": 100.5, "unit": "hours"}, {"measurement": "Thermostability Of Luciferase Activity (Half-Life In Hours)", "setting": "[4]; 50° C.", "result": 31, "unit": "h"}, {"measurement": "half-life calculated from regression of log luminescence", "setting": "[4]; 60° C. (FIGS. 6, 8)", "result": 2.9, "unit": "hours"}, {"measurement": "Thermostability Of Luciferase Activity (Half-Life In Hours)", "setting": "[4]; 60° C.", "result": 6.3, "unit": "h"}, {"measurement": "Thermostability Of Luciferase Activity (Half-Life In Hours)", "setting": "[4]; [8]", "result": 430, "unit": "h"}, {"measurement": "Signal stability (S)", "setting": "[5]; [7]", "result": 1.01}, {"measurement": "Enzyme stability (tau)", "setting": "[6]; [7]", "result": 1.9}]}
{"molecule": "B2", "values": [{"measurement": "Km", "setting": "[1]", "result": 3.4, "unit": "µM"}, {"measurement": "Km", "setting": "[2]", "result": 1.6, "unit": "µM"}, {"measurement": "Luminescence (Li)", "setting": "[3]; [9]", "result": 1.93}, {"measurement": "thermostability compared with parent enzyme", "setting": "[4]", "result": "not distinguishable from the parent enzyme"}, {"measurement": "half-life", "setting": "[4]", "result": 109, "unit": "days"}, {"measurement": "Thermostability Of Luciferase Activity (Half-Life In Hours)", "setting": "[4]; 37° C.", "result": 220, "unit": "h"}, {"measurement": "Thermostability Of Luciferase Activity (Half-Life In Hours)", "setting": "[4]; 50° C.", "result": 47, "unit": "h"}, {"measurement": "half-life calculated from regression of log luminescence", "setting": "[4]; 60° C. (FIGS. 6, 8)", "result": 38, "unit": "hours"}, {"measurement": "Thermostability Of Luciferase Activity (Half-Life In Hours)", "setting": "[4]; 60° C.", "result": 15, "unit": "h"}, {"measurement": "half life calculated from regression of log luminescence", "setting": "[4]; FIG. 5, temperature not given", "result": 144, "unit": "hours"}, {"measurement": "Thermostability Of Luciferase Activity (Half-Life In Hours)", "setting": "[4]; [8]", "result": 3000, "unit": "h"}, {"measurement": "Signal stability (S)", "setting": "[5]; [9]", "result": 0.9926}, {"measurement": "Enzyme stability (tau)", "setting": "[6]; [9]", "result": 2}]}
